From patent US9707274B2, “Methods for preventing and treating post-traumatic stress disorder (PTSD)” (priority 2007, dated 2017)
No end group written: not given here.

What was measured:
α-adrenergic = conditions: topical nasal application; cited from earlier work
[1] = tested on: human brain muscarinic cholinergic receptor; conditions: in vitro; cited from earlier work
[2] = Data set 1: tissue and blood distribution of intranasal HC with and without 1% PHE (pretreatment intervals 0, 5, 15 min merged); format: in vivo, rats
Excerpt: We investigated whether incorporation of a vasoconstrictor (phenylephrine, PHE) in the nasal formulation enhances drug targeting of an intranasally applied neuropeptide (hypocretin-1, HC) to the brain in rodents. Several factors may effect CNS concentrations of HC following intranasal administration of HC in the presence of PHE, including the dose of vasoconstrictor, the time after intranasal delivery, and the pretreatment time interval. PHE is commonly used at a dose of 1% for nasal decongestion and topical nasal application of PHE results in a rapid onset of action and duration of action of approximately 4 hours. Ideally, it would be preferred to have a nasal formulation where the vasoconstrictor and CNS drug are administered together, without the need for pretreatment of the nasal cavity with vasoconstrictor. Clearly this would be more convenient than having to intranasally pretreat, wait a period of time (5 min or 15 min), and then intranasally administer the CNS drug with additional vasoconstrictor. However, waiting a short period of time may be a necessary step to allow the vasoconstrictor to activate adrenergic receptors located on blood vessels in the nasal cavity to result in constriction. Thus, in these experiments, three pretreatment time intervals were investigated: 0 min (or no pretreatment), 5 min, 15 min, to determine the time interval necessary to wait to allow the intranasally applied 1% PHE to take effect. Anesthetized rats were sacrificed at 30 minutes following intranasal delivery of HC and 1% PHE, since typically high brain concentrations are achieved within 25-30 minutes of intranasal administration.
One-way ANOVAs comparing tissue concentrations in the three groups from the PHE-treated animals were also performed. […] Thus, the therapeutic compound(s) and vasoconstrictor(s) may be combined in a pharmaceutical composition while retaining full therapeutic benefit of the present invention. […] As a result, data obtained from control animals with different pretreatment time intervals were merged and data obtained from PHE-treated animals with different pretreatment time intervals were merged. Statistical comparisons were made between tissue concentrations in control animals (n=28) and PHE-treated animals (n=23).

[3] = set-up: species or system rats; conditions: rat, in vivo
Excerpt: Incorporation of at least one vasoconstrictor in a nasal formulation including at least one therapeutic compound, i.e., a pharmaceutical composition, enhances intranasal therapeutic compounds targeting of therapeutics to, inter alia, the CNS, meninges and lymphatics by reducing absorption into the blood, increasing concentrations in, inter alia, the CNS, or both. […] Inclusion of a vasoconstrictor in the intranasal formulation (IN PHE) further enhances brain targeting of HC compared to the intravenous delivery from the previous study (Table 2, IN PHE vs. IV). In addition, compared to intranasal delivery with no additives, intranasal administration of HC in combination with 1% PHE further enhances intranasal drug targeting to the brain, with increased targeting to the olfactory bulbs (7-fold increase), anterior olfactory nucleus (2-fold increase), frontal cortex (2-fold increase), hippocampus (2-fold increase), and hypothalamus (2-fold increase) (Table 2, IN PHE vs. IN). 1% PHE also enhances intranasal drug targeting to the superficial and deep cervical lymph nodes (5 to 6-fold) and to the meninges surrounding the brain (2-fold). Therefore, inclusion of a vasoconstrictor in an intranasal formulation is a novel strategy to further enhance intranasal drug targeting to the brain and lymphatics compared to other routes of administration. […]

[4] = rat, in vivo
Protocol: Both vasoconstricting agents are α-adrenergic agonists with short duration of action (4-6 hours). The therapeutic compound selected was hypocretin-1 (HC, MW 3500), a peptide with therapeutic potential for treating narcolepsy. In addition to determining the effect of vasoconstrictors on the intranasal delivery of hypocretin-1 to the CNS, peripheral tissues and blood, vasoconstrictor effects on the drug targeting index (DTI) were also examined.
Thirty minutes following onset of intranasal delivery, rats were perfused with saline and fixed with 4% paraformaldehyde. […] The DTI for each tissue was calculated by dividing the ratio of mean tissue concentration to blood area under the curve (AUC) of the vasoconstrictor group by the ratio of mean tissue concentration to blood AUC of the control group. DTI>1.0 indicated a drug targeting advantage with the vasoconstrictor.

[5] = tested on: saliva and plasma cortisol response; conditions: general intranasal insulin 40 IU, 26 normal adult men, placebo controlled; cited from earlier work
[6] = cited from earlier work

Molecule: CNC[C@H](O)c1cccc(O)c1 [PHE, phenylephrine]
- Duration of action (α-adrenergic): approximately 4 hours

Molecule: O=P(O)(O)OP(=O)(O)O [pyrophosphate]
- Concentration protecting the receptor from inactivation by oxidants such as heme [1]: 1-5 μm

Molecule: hypocretin-1 (QPLPDCCRQKTCSCRLYELLHGAGNHAAGILTL; ends and bridges not checked; also: 125I label, site not given here; UniProt O43612 34-66, looked up) [HC]
- Concentration of HC, Trigeminal Nerve ([2]; intranasal HC + 1% PHE, rats, 30 min): 1.71 ± 0.15 nM
- Concentration of HC, Medulla ([2]; intranasal HC control (no PHE), rats, 30 min): 1.26 ± 0.22 nM
- HC targeting (tissue-to-blood ratio), 1% PHE vs control, trigeminal nerve ([2]; rat, in vivo): not significantly different
- HC targeting (tissue-to-blood ratio), increase with 1% PHE vs control, anterior olfactory nucleus ([2]; rat, in vivo): 2.4 fold
- HC targeting (tissue-to-blood ratio), increase with 1% PHE vs control, cerebellum ([2]; rat, in vivo): 1.7 fold
- HC targeting (tissue-to-blood ratio), increase with 1% PHE vs control, deep cervical lymph nodes ([2]; rat, in vivo): 5.7 fold
- HC targeting (tissue-to-blood ratio), increase with 1% PHE vs control, dorsal meninges ([2]; rat, in vivo): 1.7 fold
- HC targeting (tissue-to-blood ratio), increase with 1% PHE vs control, frontal cortex ([2]; rat, in vivo): 2.3 fold
- HC targeting (tissue-to-blood ratio), increase with 1% PHE vs control, medulla ([2]; rat, in vivo): 1.7 fold
- HC targeting (tissue-to-blood ratio), increase with 1% PHE vs control, midbrain ([2]; rat, in vivo): 1.7 fold
- HC targeting (tissue-to-blood ratio), increase with 1% PHE vs control, olfactory bulbs ([2]; rat, in vivo): 6.8 fold
- HC targeting (tissue-to-blood ratio), increase with 1% PHE vs control, superficial cervical lymph nodes ([2]; rat, in vivo): 5.7 fold
- HC targeting (tissue-to-blood ratio), increase with 1% PHE vs control, ventral meninges ([2]; rat, in vivo): 2.9 fold
- HC drug targeting, enhancement to the meninges surrounding the brain [3]: 2 fold
- Respiration during intranasal delivery [4]: did not lead to any improvement in respiration
- Respiratory distress in animals during intranasal delivery [4]: fewer incidences of respiratory distress

Molecule: insulin
- Saliva and plasma cortisol response to the Trier Social Stress Test [5]: significantly diminished
- Memory, attention and functioning in Alzheimer's patients ([6]; intranasal insulin over a 21 day period): improve memory, attention and functioning
- Blood levels of insulin or glucose ([6]; intranasal insulin treatment, healthy adults): no change
- Memory in healthy adults ([6]; intranasal insulin treatment): improves memory
- Memory in patients with Alzheimer's disease ([6]; intranasal insulin, twenty minutes after a single treatment): improve memory
